From FireProtDB (doi:10.1021/bi00025a018)

B1: Ribonuclease HI, P0A7Y4 (parent)
chain: MLKQVEIFTDGSCLGNPGPGGYGAILRYRGREKTFSAGYTRTTNNRMELMAAIVALEALKEHCEVILSTDSQYVRQGITQWIHNWKKRGWKTADKKPVKNVDLWQRLDAALGQHQIKWEWVKGHAGHPENERCDELARAAAMNPTLEDTGYQVEV

Variants of: B1
Conditions: Escherichia coli (strain K12), Thermal, CD, NaCl 0.1 M, reversible: yes, structure 2RN2, whole UniProt chain shown
[1] = pH 3, 50.9 °C, glycine-HCl 10 mM
[2] = pH 5.5, 52.5 °C, Sodium acetate 10 mM

Row | Variant | ddG of mutation (higher = less stable) [1] | Tm (pH 3, glycine-HCl 10 mM) | change of melting temperature, mutant - wild type (higher = more stable) (pH 3, glycine-HCl 10 mM) | unfolding enthalpy (van 't Hoff) (pH 3, glycine-HCl 10 mM) | ddG of mutation (higher = less stable) [2] | Tm (pH 5.5, Sodium acetate 10 mM) | change of melting temperature, mutant - wild type (higher = more stable) (pH 5.5, Sodium acetate 10 mM) | unfolding enthalpy (van 't Hoff) (pH 5.5, Sodium acetate 10 mM)
1 | H62P | -1 kcal/mol | 54.3 °C | 3.4 °C | 110 kcal/mol | -1.1 kcal/mol | 56.6 °C | 4.1 °C | 102 kcal/mol
2 | D134H | -0.5 kcal/mol | 53.6 °C | 1.7 °C | 106 kcal/mol | -1.9 kcal/mol | 59.5 °C | 7 °C | 107 kcal/mol
3 | G23A | -0.7 kcal/mol | 53.2 °C | 2.3 °C | 99.3 kcal/mol | -0.5 kcal/mol | 54.3 °C | 1.8 °C | 91.8 kcal/mol
4 | V74L | -1.1 kcal/mol | 54.6 °C | 3.7 °C | 119 kcal/mol | -0.9 kcal/mol | 55.8 °C | 3.3 °C | 91.2 kcal/mol
